Among the data in a protein production outcome set (Wang et al. 2014) are protein production values, retold here.

The data set is described as follows: label from the status in PepcDB records.
Consider “MEKLLTVFTPTYNRVHTLHKCYESLKNQSCKDFKWLIIDDGSTDGTKDVVKRWIHEKNDFEITYIYQSNKGMHGAHNTAYENIDTELNICIDSDDYMPRDAVEKINKNWNRVKHNKKISGLVGLDSYENGDVIGKKFPEGLKEATLFEINNKYKIPGDKKLVYRSELTKKFPYPIFEGEKYVGLAYKYYKLDEEHRLALINDILCVVEYLEDGSSKNMIKQYKNNPKGFAFYRIENIKNSKATLKFKFKESIHYVASSFISKNKNFLIESPEKILTLLSIPMGMLLYLYIKIKG”, for which the protein production entry is given as “failed”.

With “MEKMLSTYIEEAMEFYAIGKGADFKAIIEKGIASCMTTYSTYDRELYKAYALLATYLSNHAFKIIKSRPAFQAMAINCFDQLDSLRQQHDPHLQVTKGFLWMLSSSRAQDADALLISVLRNHPKNILALIGRACLAYNRQDYIGALGYFKSVLLIQPQGMADVWVGIGHCFWKMGELEKAQLSFQIALEHNGQCLNAALALALVKFEHNDEQSYQDGKMLLTAAYKENNKNPDLLSILAGMYYADGNHKLVWSFAGNAIKFTANKHIESRNYFQIAKSYHATGQFESAKKYYLLSAKSAPDGYILPLVGVAQMYLHEGELNRSKAFLESFLTSEPDEPVVMDLLAKIYLEYKCPEKIDKAIEMLVKVVESASYHQNTNSWLNLAFAYEQKRLWAHGVNAYQKAIDIYLSQGHQIPIEWLNNLASSQLMAKMPEKALNTLDDALSKCRVMNSDNKTTNLLSLQYNRGLVLEELHMFTLAAENYKSITKEYSSYHDCYLRLGVMAIQKNNHTQAIEHLKDILVEDNLNMTARTYMGDCFKGLSLDKFATFNYNMILARQSKFTNTYVSMAMGNFCLEKLQNWIAEGNFRAARKQQEKALQCFGKILDCNPKNLWAANGIGAVLSSCNNLSAGGAIFKQIIECGNKCIPAIINSAHIALVSGQYRLAIQTYERCLKDHLPKNRVDVMHCLAKALYDNGDARKAKMWLLKVRHLVPHDPFVIFNLGLAIKKETEQALALPRPQLDELMGLDGLLKVAFKLFCHINLNHPKISVRVSAKYAEDCQNLMTELIAKKRQASESHAMEEDRVQLQKQRYRDHIEHQRQQELQREEEERVRRENLKIQRKEVLERTRKIISAPLAPDVPKKSAGNGRAKKNQENGDGKAKKSGPPKKKTRKRAAGKEQEDIEPLKKPKSKEFIDTDDDNSE”, the protein production entry was “failed”.

Consider “MEKNDIFVVIPAYNEEKMIKNTLINLKSHGYENIIVVDDGSRDNTSKIAISEEVIVCKHIINRGLGGALKTGLKCAVKYNPKVIVTFDADGQHDPEDIFKVSEPILEDSFDVVVGSRLIDENELKNMPLIKKIGNWGLNFITYLMGGRMVTDSQGGLRAFSYDAAEIVSKQLKSNRYEVSSEFIVLFKKNNLKFKEVPIKTIYTEYSMARGTNVITGFKILFKLLIQKLILEHHHHHH”, for which the protein production result is reported as “not failed”.

Regarding “MEKNSLFSQRIRLRHLHTFVAVAQQGTLGRAAETLNLSQPALSKTLNELEQLTGARLFERGRQGAQLTLPGEQFLTHAVRVLDAINTAGRSLHRKEGLNNDVVRVGALPTAALGILPSVIGQFHQQQKETTLQVATMSNPMILAGLKTGEIDIGIGRMSDPELMTGLNYELLFLESLKLVVRPNHPLLQENVTLSRVLEWPVVVSPEGTAPRQHSDALVQSQGCKIPSGCIETLSASLSRQLTVEYDYVWFVPSGAVKDDLRHATLVALPVPGHGAGEPIGILTRVDATFSSGCQLMINAIRKSMPF”, the protein production entry was “failed”.

Consider “MEKQIFCQFLVVMMLLSSSQIQGDLRKGCYDLGITVLMGCPDSIDKKLPAPPTPSEGCCTLVRTIGMKCVCEIVNKKIEDTIDMQKLVNVAAACGRPLAPGSQCGSYRVPGA”, for which the protein production entry was “failed”.

For the sequence “MEKRELKASVPKFDKIPWLSEASLVNKPLVLSLPRRYPHTSATFLTSSKKNMNLPILFQVPDVLSKARRNQCDSMLLRNQQLCSTCQEMKMVQPRTMKIPDDPKASFENCMSYRMSLHQPKFQTTPEPFHDDIPTENIHYRLPILGPRTAVFHGLLTEAYKTLKERQRSSLPRKEPIGKTTRQ”, the protein production result was “failed”.

On to “MEKSKIINYWDKRAESFSKNKLAELESTHAQKWIEEINNINPIQPGMKILDIGTGAGFLAILCGNLGSDVTGIDLSPEMIQSAKQNAESHHQDIHFQVMDAESLQFNDETFDMVISRNVTWLLPNTKAAYQEWLRVLKPNGKLINIDANYGNDSFTDYKSLNTEHAHHTLGKDMLAESEAIKQNIPINHQPRPQTDMDILKSLGFDHIHLDTEIYLRMYSEQDEFYNPTPIFLISVTKSY”, for which the protein production entry is reported as “failed”.

Consider “MELASPISSSFLEAFSRLSLERYSFLSIATSTIPSAAFLTTGFSSFNTSRAKLNASSMISGSLVLTTISFSTLRAETFFFSDFPFRMFLIQENIILATLIILAPRVATPSAAYSFIGSGLFSTIPINISESLVLISSGNSMKVTMAFIVSTACKTTVSSLSSNSLIRSGITSFTSSIPSSFFIASFFIMYRVPFFIKGSFSCNAFLSIDILFSLSSSTIWRAFLTLHPFKFSIYSS”, for which the protein production result is recorded as “failed”.

On to “MELETLFVIGMFLTFGALLMTGYPVAWVLGGTAVIWTVVGVVAVENFGANLWFDYQSSMGLVPERIWKVVSSETLVALPMFIFMGIMLDQSGVAERLMNSMVKLFGAVRGGYAVTVIVIGVLLAATTGIIGASVVLLGMLSLPVMMENKYDKGFAVGTACATGTLGILIPPSIMLVLMADRLAVPEASVGDLFMGAFFPGLMLGAMYVAYAIIRPMLQPNIAPVPEGTEKVSWAIVWDVAKAVVPTAALILGVLGSIFAGIATPTEASGVGALGALLLALMSGRLNLNVLNSSMQQTTRTAAFIFAIFLGATAFSVVLRGLGGDQVIEDALLGLPFGPYGVVLTILLGVFLLGFFLDWVEITLIILPLVAPVVQQLGFDLVWFTILFAMCLQTSFLTPPVGFALFYIKGVAPPEIKVTDIYRGVIPFIIIQLVALAIVFVVPEIATWLPGVAYD”, for which the protein production result is “failed”.

Regarding “MELGAYRWKAPVGYLDEYVKSFRERKIIGSLCASCGRVYVPPREICARCFTETAEKVEVSQYGEVLAFLVSPPLEKGKVVIAGIDAVQAGFLKEGEQIILAMVRFEGTSSSLVLPLINTEPEKVRVGMKVKAVWAEECKGKLADLIGVEPAFEVIYKLEHHHHHH”, the protein production entry is recorded as “failed”.

For “MELIFLGTSAGVPTRTRNVTAILLNLQHPTQSGLWLFDCGEGTQHQLLHTAFNPGKLDKIFISHLHGDHLFGLPGLLCSRSMSGIIQPLTIYGPQGIREFVETALRISGSWTDYPLEIVEIGAGEILDDGLRKVTAYPLEHPLECYGYRIEEHDKPGALNAQALKAAGVPPGPLFQELKAGKTITLEDGRQINGADYLAAPVPGKALAIFGDTGPCDAALDLAKGVDVMVHEATLDITMEAKANSRGHSSTRQAATLAREAGVGKLIITHVSSRYDDKGCQHLLRECRSIFPATELANDFTVFNV”, the protein production entry is given as “failed”.

Regarding “MELKNVKDAFDRVTKKQKLCYSKTHEVVDKMSQEIDKALKTIQEDNHESVVADLKKTFEEIAPINLLEASQKEINGVLTKYPKALDKTLNPDISTAYRNVKFDTHTVHQILAQFFYRQGMYDVGDCFISETGEVKPESSVTKAFMEMNMILEAMKERDLGPALKWVASNSDKLKEAKSDLELKLHSLHFLEIAKDKTSEEAINYARKHFATYSADSCCFPEIQKLMCSLLWIRNLNKSPYSEFLSPVLWTNAAKELTRQYCILLGESPESPLSVTVAAGSQVLPTFLKYLNVLPEKRKEWQTMEQLLVPVELSEEYRFYSVFVCPVSKEHSSEDNPPMRLACGHVLCKQSINRMSRNGSRSFKCPYCPTDIDASQCKQLYF”, the protein production result is “failed”.

As for “MELMIGRVVKSHGIRGEVAIEVTTEEPEIRFAQGEVLNGRQGGKEHSLTIASVRPHQNRLLVKFKEIADRTAADSLRGTRFFAAPLDDDVDDGFYDHELEGLAVIHGEEKIGEVSGVIHGPAQSLLEVTLESGKEVLIPFVHDIVPEVDLDAGTCVITPPEGLLELLEHHHHHH”, the protein production result is listed as “not failed”.

Turning to “MELPSFIFQAQENLVERPWGGEWIALLKGFRQSGIGESWEFSAHTSRPSTVLVKGQQLSMIELFSKHRDELLGRAAEKFSKFPILVRLIDAASPTQVHVHPSDKAAESLGEAEGGVESAWLVFNKGKAYAGFKEDVKIEELEEKLKEEDFDFKTLLNTFETTPYDTFVIRPGIPHAGEGLRVLEVSSNSTLAYFFNENDWEKVKKVLNTKKVEEFEVKGKKGMAETENFGLEVVDVTGTAEIKTGGVMNILYAAEGYFILRGKETADLHRGYSCLVPASTDSFTVESERGKIVRIYLKV”, the protein production result is reported as “not failed”.
